Broadly, the Kd is the concentration at which binding is half-saturated.

Assay type in all cases: binding
One assay concerns the target human serum albumin (Homo sapiens, UniProt P02768). The assay is described as follows: FFAu profile in artificial plasma (FFA mixed with fatty acid free human serum albumin). Particulars: artificial plasma: defined FFA mix with fatty acid free HSA in Measuring buffer.
Assay [1] is described as follows: Probe calibration by titration with FFA / FFA-BSA complexes: MA. As to conditions: equilibrium dissociation constant of probe for MA. Here is the method:
(§1) Calibration: Each probe is calibrated to the extent that the constants in Equation 2 are well determined for all FFAu to be included in profile calculations. Equation 2, which is the form of equation 1 for a single FFAu, relates the FFAu concentration to the equilibrium dissociation constant (Kd), fluorometric constants (Q and Rm) and the measured R values.
(§2) The calibration parameters are determined essentially as described in U.S. Pat. No. 7,601,510 which is incorporated herein by reference and (Huber et al Biochemistry (2006) 45:14263-14274) where the calibrated ADIFAB2 probe was used to generate FFA-BSA complexes with accurate and well buffered FFAu concentrations. To calibrate probes with substantially higher affinities than used in U.S. Pat. No. 7,601,510 and (Huber et al Biochemistry (2006) 45:14263-14274) a boot strap method is used in which a probe having higher affinities is calibrated with ADTFAB2. Such a probe is then used to generate FFA-BSA complexes with FFAu concentrations from 0.1 to 10 nM and these complexes are then used to calibrate other high affinity probes.
(§3) Probe calibration involves titrating the probes with either (i) un-buffered FFA or (ii) BSA-buffered FFA stocks. The un-buffered titrations involve measuring the R-value of a 1 μM probe solution as it is slowly titrated to saturation with small aliquots of a 100 to 250 μM FFA stock (Richieri G V et al. (1992) J Biol Chem 267: 23495-23501, Richieri G V et al. (1999) Mol Cell Biochem 192: 87-94). In this case, the total FFA concentration for each point in the titration is known and a nonlinear fit to the titration data yields the full set of fluorometric constants. In an un-buffered FFA titration, probe concentration is a key variable because the probe binds FFA, directly affecting the FFAu value.
(§4) Alternatively, in a BSA-buffered FFA calibration, the probe solution is titrated with a series of FFA-BSA complexes (600 μM BSA with [FFAu] ranging from 0.1 nM to 4 μM). The titration samples are FFA-BSA complex diluted 50-fold in Measuring Buffer. Probe is added to a concentration of 0.5 μM and the R-value is measured. Because BSA buffers FFAu, its concentration remains constant (i.e. known), even after the addition of probe. […] At least two calibrations with each of the up to 15 different FFA are performed for each probe.
(§5) All of the probes reveal substantial differences for different FFAu and in many cases these differences are related to the aqueous solubility of the FFA. For example, of the FFA in Table 3, SA is the least soluble and MA the most soluble. As discussed in (Richieri G V et al (2000) Biochemistry 39: 7197-7204) the tendency of natural proteins and FABPs, in particular, is for binding constants to be largest (smallest Kd) for the least soluble FFA and conversely for the most soluble FA. In two cases, ADIFAB2 and L11, Kd for SA is substantially the smallest and MA the largest and that pattern is more or less maintained for most of the other probes in Table3 with the exception of L83. In that case MA has the largest affinity while SA's more than 10 fold smaller. To some extent the other calibrations constants follow that behavior; Q is largest for the smallest Kd and Rmax is often largest, so that the probe response tends to be larger for FFA with the larger affinities. The ability to generate mutations that overcome the “natural thermodynamics” allows for probes that have a wide range of specificities and sensitivities than enable the determination of FFAu profiles.

Assay [2] is described as follows: Probe calibration by titration with FFA / FFA-BSA complexes: AA. Particulars: equilibrium dissociation constant of probe for AA. Here is the method: as §1, §2, §3, §4, §5
Assay [3] is described as follows: Probe calibration by titration with FFA / FFA-BSA complexes: SA. As to conditions: read-out: Kd for SA. Here is the method: as §1, §2, §3, §4, §5
Assay [4] in a line: Probe calibration by titration with FFA / FFA-BSA complexes: POA. As to conditions: equilibrium dissociation constant of probe for POA. Here is the method:
as §1, §2, §3, §4, §5

Assay [5] is described as follows: Probe calibration by titration with FFA / FFA-BSA complexes: LA. As to conditions: equilibrium dissociation constant of probe for LA. As for the experimental part:
as §1, §2, §3, §4, §5

Assay [6] in a line: Probe calibration by titration with FFA / FFA-BSA complexes: OA. As to conditions: equilibrium dissociation constant of probe for OA. As for the experimental part: as §1, §2, §3, §4, §5
Assay [7] in a line: Probe calibration by titration with FFA / FFA-BSA complexes: PA. Particulars: equilibrium dissociation constant of probe for PA. Here is the method: as §1, §2, §3, §4, §5
Assay [8] can be described thus: Probe calibration by titration with FFA / FFA-BSA complexes: LNA. Particulars: equilibrium dissociation constant of probe for LNA. Here is the method: as §1, §2, §3, §4, §5
Assay [9] is described as follows: Probe response (increase in R) to 1 nM SA. Particulars: 1 nM of SA, FIG. 1. From the text:
The set of probes chosen to determine the profile of a sample depends upon the nature of the sample, the types of FFA expected to be present in the sample and the determination that the chosen probes respond to the expected FFA. In addition, especially for the least abundant FFAu in a sample, the probe's sensitivity for a given FFAu must be sufficient to accurately quantitate the low concentration FFAu, for example less than 50 pM. Sensitivity is a function of the Kd, Q, Ro and Rm parameters. Differences in sensitivity among different FFAu probes are apparent in FIG. 1 where for example for ADIFAB2 (acrylodan labeled at lysine 27), 1 nM of SA produces a 20% increase in R while for L11P7B3V26C the increases is almost 500%. […] In the absence of absolutely specific and sensitive probes the determination of FFAu profiles requires an over determined system, which empirically requires about twice the number of probes as FFAu to obtain accurate profiles. The identity of the set of probes to achieve accurate FFAu profiles is not unique. […]
The response profile is the fluorescence change as evaluated as (R−Ro)/Ro (ΔR/Ro) for each FFAu added as a complex of the FFA and albumin so that the FFAu concentration is clamped or buffered at 1 nM for every FFAu for which a calibration has been performed. […]

Assay [10] in a line: Probe calibration by titration with FFA / FFA-BSA complexes: DHA. Particulars: equilibrium dissociation constant of probe for DHA. Here is the method: as §1, §2, §3, §4, §5

Chain of human serum albumin (P02768 25-609): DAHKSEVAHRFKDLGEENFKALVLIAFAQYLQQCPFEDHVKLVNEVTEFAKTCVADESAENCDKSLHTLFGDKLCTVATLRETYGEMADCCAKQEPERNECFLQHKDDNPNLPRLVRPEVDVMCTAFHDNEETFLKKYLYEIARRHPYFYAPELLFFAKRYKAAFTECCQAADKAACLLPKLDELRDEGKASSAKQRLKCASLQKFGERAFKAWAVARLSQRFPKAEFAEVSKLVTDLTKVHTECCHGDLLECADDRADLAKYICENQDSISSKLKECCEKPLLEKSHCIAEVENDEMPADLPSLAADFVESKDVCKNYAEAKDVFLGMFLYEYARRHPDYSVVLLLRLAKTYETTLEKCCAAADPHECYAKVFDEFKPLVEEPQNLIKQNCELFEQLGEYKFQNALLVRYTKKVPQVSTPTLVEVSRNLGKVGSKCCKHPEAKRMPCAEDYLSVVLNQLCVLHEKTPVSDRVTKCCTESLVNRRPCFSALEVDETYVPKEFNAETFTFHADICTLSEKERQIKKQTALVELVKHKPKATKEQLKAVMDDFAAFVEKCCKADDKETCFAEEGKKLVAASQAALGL
Description for human serum albumin: To determine if the low unbound POA levels were due to an interaction with some component of the blood sample matrix an artificial plasma was generated by mixing well defined amounts of the FFA used in Table 4 to fatty acid free human serum albumin in Measuring buffer.

As for `CCCCCC/C=C\CCCCCCCC(=O)O` [POA, palmitoleate], the “% FFAu” value at human serum albumin worked out at 16.9%.

B1: L11P7 B3 V26C: acrylodan-labeled mutant FABP probe: M21F, V26C, L72A, L78V, L102V (protein, UniProt P02693 2-132, looked up, variant M21F V26C L72A L78V L102V)
Fatty acid-binding protein, …: AFDGTWKVDRNENYEKFMEKFGINVCKRKLGAHDNLKLTITQEGNKFTVKESSNFRNIDVVFELGVDFAYSAADGTEVTGTWTMEGNKLVGKFKRVDNGKEVIAVREISGNELIQTYTYEGVEAKRIFKKE
modifications: acrylodan label
notes: acrylodan-labeled mutant FABP probe: M21F, V26C, L72A, L78V, L102V
B1: the Kd in assay [1] came to 18.8 nM; in assay [2], 6.1 nM; in [3], 0.25 nM; in assay [4], 11.1 nM; in assay [5], 3.9 nM; in [6], 1 nM. Further, the Kd in [7] turned out to be 1.1 nM; in [8], 11.2 nM; in [10], 7.5 nM. Also, the “increase in R” value in assay [9] is recorded as roughly 500%.

The values are drawn from patent US10705101B2, “Determination of the unbound free fatty acid profiles in biological and industrial specimens” (priority 2013, dated 2020).
